Reference: US20200262877A1, “ION CHANNEL-BINDING PEPTIDES AND METHODS OF USE THEREOF” (priority 2017, published 2020)

How the values were obtained:
5HT3a = target: T1, 5HT3a (Homo sapiens, UniProt P46098); assay: Ion channel panel (IonWorks Barracuda): 5HT3a; assay type: cell-based
T1 construct: host or cells: HEK293 or CHO
T1 sequence (P46098 whole entry, looked up): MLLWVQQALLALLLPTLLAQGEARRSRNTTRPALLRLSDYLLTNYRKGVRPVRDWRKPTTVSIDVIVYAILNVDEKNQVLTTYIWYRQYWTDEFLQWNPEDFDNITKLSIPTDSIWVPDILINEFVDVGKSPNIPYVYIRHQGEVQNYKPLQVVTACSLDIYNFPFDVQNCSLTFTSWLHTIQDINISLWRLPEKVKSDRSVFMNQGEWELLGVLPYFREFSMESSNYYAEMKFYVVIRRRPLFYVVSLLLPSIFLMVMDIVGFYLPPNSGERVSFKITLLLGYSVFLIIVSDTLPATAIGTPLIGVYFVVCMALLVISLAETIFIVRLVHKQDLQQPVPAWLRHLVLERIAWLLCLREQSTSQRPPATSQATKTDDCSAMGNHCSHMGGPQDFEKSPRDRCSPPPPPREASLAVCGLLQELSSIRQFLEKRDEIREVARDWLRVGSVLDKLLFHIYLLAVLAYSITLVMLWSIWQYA
Summary of the method: (§1)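 Transfected HEK293 or CHO cells were exposed for at least 5 min to peptides at 200 nM and 20 μM final, tested in duplicate, in HEPES-buffered physiological saline. Activation was taken as peptide-plus-agonist current over control current ×100, and inhibition as 1 minus that ratio ×100. Each channel's control was its own reference compound.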

α3β4 = target: T2, α3β4 (Homo sapiens, UniProt P30926+P32297); assay: Ion channel panel (IonWorks Barracuda): α3β4; assay type: cell-based; conditions: 100% = no change, <100% = inhibition
T2 construct: host or cells: HEK293 or CHO
Summary of the method: as §1

α4β2 = target: T3, α4β2 (Homo sapiens, UniProt P17787+P43681); assay: Ion channel panel (IonWorks Barracuda): α4β2; assay type: cell-based; conditions: 100% = no change, <100% = inhibition
T3 construct: host or cells: HEK293 or CHO
Summary of the method: as §1

Cav2.1 = target: T4, Cav2.1 (Homo sapiens, UniProt O00555); assay: cell-based; conditions: 100% = no change, <100% = inhibition
T4 construct: host or cells: HEK293 or CHO
Summary of the method: as §1

Cav2.2 = target: T5, Cav2.2 (Homo sapiens, UniProt Q00975); assay: cell-based; conditions: 100% = no change, <100% = inhibition
T5 construct: host or cells: HEK293 or CHO
Summary of the method: as §1

Kv2.1 = target: T6, Kv2.1 (Homo sapiens, UniProt Q14721); assay: cell-based; conditions: 100% = no change, <100% = inhibition
T6 construct: host or cells: HEK293 or CHO
Summary of the method: as §1

GABA = assay: Ion channel panel (IonWorks Barracuda): GABA; assay type: cell-based; conditions: 100% = no change, <100% = inhibition
Summary of the method: as §1

Nav1.5 = Nav1.5 (Homo sapiens, UniProt Q14524); assay: in vitro; conditions: 100% = no change; for Activity of Nav1.5 with peptide, expressed as a percentage of the reference compound: peptide at 0.2 μM; for Activity of Nav1.5 with peptide (percentage of the reference compound): peptide at 20 μM
Summary of the method: as §1

hERG = hERG (Homo sapiens, UniProt Q12809); assay: in vitro; conditions: 100% = no change, <100% = inhibition
Summary of the method: as §1

Kir2.1 = target: T7, Kir2.1 (Homo sapiens, UniProt P63252); assay: Ion channel panel (IonWorks Barracuda): Kir2.1; assay type: cell-based; conditions: 100% = no change, <100% = inhibition
T7 construct: host or cells: HEK293 or CHO
Summary of the method: as §1

Kv1.1 = target: T8, Kv1.1 (Homo sapiens, UniProt Q09470); assay: cell-based; assay type: cell-based; conditions: 100% = no change, <100% = inhibition
T8 construct: host or cells: HEK293 or CHO
Summary of the method: as §1

Kv1.2 = target: T9, Kv1.2 (Homo sapiens, UniProt P16389); assay: cell-based; assay type: cell-based; conditions: 100% = no change, <100% = inhibition
T9 construct: host or cells: HEK293 or CHO
Summary of the method: as §1

Kv1.3 = target: T10, Kv1.3 (Homo sapiens, UniProt P22001); assay: cell-based; assay type: cell-based; conditions: 100% = no change, <100% = inhibition
T10 construct: host or cells: HEK293 or CHO
Summary of the method: as §1

Nav1.7 = target: T11, Nav1.7 (Homo sapiens, UniProt Q15858); assay: cell-based; assay type: cell-based; conditions: 100% = no change; for Activity of Nav1.7 with peptide, expressed as a percentage of the reference compound: peptide at 0.2 μM; for Activity of Nav1.7 with peptide (percentage of the reference compound): peptide at 20 μM
T11 construct: host or cells: HEK293 or CHO

NR2A = target: T12, NR2A (Homo sapiens, UniProt Q12879); assay: Ion channel panel (IonWorks Barracuda): NR2A; assay type: cell-based; conditions: 100% = no change, <100% = inhibition
T12 construct: host or cells: HEK293 or CHO
Summary of the method: as §1

NR2B = target: T13, NR2B (Homo sapiens, UniProt Q13224); assay: Ion channel panel (IonWorks Barracuda): NR2B; assay type: cell-based; conditions: 100% = no change, <100% = inhibition
T13 construct: host or cells: HEK293 or CHO
Summary of the method: as §1

TRPA1 = target: T14, TRPA1 (Homo sapiens, UniProt O75762); assay: Ion channel panel (IonWorks Barracuda): TRPA1; assay type: cell-based; conditions: 100% = no change, <100% = inhibition
T14 construct: host or cells: HEK293 or CHO
Summary of the method: as §1

TRPV1 = target: T15, TRPV1 (Homo sapiens, UniProt Q8NER1); assay: Ion channel panel (IonWorks Barracuda): TRPV1; assay type: cell-based; conditions: 100% = no change, <100% = inhibition
T15 construct: host or cells: HEK293 or CHO
Summary of the method: as §1

[1] = first of two Nav1.5 columns (probably TP1)
[2] = second of two Nav1.5 columns (probably TP2)
[3] = first of two Nav1.7 columns (probably TP1)
[4] = second of two Nav1.7 columns (probably TP2)

Chain of Nav1.5 (Q14524 whole entry): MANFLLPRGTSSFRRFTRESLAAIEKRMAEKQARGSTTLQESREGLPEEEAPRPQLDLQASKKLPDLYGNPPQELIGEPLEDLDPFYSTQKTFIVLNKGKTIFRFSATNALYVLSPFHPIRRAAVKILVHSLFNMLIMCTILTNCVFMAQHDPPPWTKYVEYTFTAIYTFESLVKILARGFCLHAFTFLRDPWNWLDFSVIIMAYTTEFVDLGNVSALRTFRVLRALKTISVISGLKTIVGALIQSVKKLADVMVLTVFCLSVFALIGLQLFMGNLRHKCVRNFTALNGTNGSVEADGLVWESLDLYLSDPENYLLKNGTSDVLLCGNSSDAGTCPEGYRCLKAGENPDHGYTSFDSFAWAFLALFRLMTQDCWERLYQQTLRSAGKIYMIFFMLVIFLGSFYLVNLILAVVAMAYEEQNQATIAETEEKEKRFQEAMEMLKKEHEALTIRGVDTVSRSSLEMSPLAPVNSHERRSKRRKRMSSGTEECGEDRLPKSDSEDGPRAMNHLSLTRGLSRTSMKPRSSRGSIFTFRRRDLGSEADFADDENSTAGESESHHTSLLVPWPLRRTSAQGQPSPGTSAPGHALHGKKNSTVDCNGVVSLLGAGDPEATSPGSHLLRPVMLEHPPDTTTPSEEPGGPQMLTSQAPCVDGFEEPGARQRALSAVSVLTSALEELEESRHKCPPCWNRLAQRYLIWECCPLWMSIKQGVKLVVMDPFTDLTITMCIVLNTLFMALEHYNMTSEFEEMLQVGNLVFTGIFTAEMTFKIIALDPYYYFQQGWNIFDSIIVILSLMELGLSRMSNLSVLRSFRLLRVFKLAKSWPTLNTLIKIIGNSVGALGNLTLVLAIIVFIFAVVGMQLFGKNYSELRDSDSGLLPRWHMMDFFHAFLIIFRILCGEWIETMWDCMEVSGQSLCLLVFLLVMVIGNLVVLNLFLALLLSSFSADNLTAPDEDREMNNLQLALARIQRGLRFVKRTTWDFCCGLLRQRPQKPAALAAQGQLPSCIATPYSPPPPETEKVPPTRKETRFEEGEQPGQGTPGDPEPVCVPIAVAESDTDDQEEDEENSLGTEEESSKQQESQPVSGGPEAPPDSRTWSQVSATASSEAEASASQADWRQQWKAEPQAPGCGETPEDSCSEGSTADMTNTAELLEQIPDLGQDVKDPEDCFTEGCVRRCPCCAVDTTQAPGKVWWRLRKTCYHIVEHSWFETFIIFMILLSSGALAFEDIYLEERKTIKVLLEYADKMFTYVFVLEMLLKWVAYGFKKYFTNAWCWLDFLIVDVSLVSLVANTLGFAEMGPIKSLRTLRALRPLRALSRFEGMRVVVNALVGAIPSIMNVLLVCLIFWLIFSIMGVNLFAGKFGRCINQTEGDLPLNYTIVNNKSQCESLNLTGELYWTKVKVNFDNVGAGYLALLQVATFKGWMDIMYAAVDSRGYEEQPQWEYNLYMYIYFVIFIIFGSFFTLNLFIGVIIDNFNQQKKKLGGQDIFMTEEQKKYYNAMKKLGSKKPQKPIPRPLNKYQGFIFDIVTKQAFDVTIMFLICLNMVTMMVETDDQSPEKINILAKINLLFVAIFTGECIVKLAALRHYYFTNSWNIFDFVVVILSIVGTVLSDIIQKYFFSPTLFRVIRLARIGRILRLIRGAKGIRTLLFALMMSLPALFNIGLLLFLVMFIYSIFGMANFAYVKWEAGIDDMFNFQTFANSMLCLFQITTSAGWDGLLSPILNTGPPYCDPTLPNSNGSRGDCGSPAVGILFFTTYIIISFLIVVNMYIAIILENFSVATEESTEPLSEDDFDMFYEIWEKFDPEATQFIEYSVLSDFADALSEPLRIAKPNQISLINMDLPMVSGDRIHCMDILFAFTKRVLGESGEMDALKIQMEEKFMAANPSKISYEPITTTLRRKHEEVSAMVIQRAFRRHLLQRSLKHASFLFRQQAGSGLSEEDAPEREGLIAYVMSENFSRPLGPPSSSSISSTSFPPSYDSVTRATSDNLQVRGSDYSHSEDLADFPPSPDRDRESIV
T11 sequence (Q15858 whole entry): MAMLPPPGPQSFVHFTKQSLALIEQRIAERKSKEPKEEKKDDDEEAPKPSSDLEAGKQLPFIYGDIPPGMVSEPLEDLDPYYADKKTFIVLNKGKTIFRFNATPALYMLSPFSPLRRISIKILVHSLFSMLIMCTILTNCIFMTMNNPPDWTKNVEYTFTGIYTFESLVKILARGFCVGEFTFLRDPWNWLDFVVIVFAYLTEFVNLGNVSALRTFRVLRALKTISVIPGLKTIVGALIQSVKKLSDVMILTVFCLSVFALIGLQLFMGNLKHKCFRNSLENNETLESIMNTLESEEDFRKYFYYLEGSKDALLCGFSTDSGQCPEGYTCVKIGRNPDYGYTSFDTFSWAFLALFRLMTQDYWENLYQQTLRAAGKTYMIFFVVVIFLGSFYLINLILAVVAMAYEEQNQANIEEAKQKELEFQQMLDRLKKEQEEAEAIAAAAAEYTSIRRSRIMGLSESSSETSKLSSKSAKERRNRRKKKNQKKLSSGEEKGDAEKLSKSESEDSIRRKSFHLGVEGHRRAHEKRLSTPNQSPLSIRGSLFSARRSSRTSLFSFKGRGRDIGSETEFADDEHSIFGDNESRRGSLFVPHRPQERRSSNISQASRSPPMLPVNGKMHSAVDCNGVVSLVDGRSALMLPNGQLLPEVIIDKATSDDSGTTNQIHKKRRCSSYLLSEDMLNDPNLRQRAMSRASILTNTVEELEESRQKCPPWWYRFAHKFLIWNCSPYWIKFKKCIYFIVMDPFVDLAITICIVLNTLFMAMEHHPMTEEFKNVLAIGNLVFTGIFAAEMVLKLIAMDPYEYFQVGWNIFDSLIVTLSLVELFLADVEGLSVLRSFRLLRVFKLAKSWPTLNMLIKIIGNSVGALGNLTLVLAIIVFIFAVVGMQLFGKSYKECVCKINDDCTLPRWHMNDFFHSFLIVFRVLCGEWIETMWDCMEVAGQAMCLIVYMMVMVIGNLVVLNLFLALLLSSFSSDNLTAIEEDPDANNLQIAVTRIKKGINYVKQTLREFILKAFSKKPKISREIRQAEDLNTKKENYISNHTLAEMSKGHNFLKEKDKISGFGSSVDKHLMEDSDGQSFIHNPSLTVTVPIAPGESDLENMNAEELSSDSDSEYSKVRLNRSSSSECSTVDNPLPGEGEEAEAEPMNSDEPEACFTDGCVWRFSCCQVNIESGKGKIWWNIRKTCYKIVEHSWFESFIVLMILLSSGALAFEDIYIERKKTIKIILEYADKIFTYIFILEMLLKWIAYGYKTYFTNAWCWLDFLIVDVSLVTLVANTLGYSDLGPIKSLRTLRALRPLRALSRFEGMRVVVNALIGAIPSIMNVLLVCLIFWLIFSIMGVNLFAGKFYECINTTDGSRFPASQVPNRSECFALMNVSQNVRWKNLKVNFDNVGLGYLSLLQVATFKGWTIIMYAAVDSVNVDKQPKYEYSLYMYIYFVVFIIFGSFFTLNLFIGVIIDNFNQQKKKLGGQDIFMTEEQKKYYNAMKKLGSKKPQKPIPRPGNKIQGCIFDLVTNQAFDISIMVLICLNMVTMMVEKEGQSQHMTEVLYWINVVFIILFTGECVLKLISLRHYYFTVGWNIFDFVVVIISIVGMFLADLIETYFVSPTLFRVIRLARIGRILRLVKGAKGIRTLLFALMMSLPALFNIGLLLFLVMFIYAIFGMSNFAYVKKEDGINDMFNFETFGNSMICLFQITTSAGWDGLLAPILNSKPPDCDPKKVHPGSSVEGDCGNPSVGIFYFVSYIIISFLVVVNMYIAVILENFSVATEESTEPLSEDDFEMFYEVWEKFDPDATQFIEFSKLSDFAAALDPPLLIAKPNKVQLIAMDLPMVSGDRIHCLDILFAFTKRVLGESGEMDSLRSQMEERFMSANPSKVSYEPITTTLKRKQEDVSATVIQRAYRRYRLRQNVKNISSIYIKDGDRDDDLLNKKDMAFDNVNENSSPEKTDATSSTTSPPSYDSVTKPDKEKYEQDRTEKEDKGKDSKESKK
T2 sequence (P30926 22-498): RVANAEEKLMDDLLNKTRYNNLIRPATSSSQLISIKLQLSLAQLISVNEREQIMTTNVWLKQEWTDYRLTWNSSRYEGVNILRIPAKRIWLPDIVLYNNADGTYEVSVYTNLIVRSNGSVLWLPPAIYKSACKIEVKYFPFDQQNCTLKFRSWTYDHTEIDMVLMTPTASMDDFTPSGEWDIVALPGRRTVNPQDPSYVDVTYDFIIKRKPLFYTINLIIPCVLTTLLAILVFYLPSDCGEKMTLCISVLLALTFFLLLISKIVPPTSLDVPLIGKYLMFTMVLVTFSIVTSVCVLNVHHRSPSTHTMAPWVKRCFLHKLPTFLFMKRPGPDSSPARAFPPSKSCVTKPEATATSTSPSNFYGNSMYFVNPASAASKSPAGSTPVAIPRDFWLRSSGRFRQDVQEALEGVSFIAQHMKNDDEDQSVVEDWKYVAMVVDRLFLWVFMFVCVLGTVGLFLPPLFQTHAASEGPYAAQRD
T2 sequence (P32297 32-505): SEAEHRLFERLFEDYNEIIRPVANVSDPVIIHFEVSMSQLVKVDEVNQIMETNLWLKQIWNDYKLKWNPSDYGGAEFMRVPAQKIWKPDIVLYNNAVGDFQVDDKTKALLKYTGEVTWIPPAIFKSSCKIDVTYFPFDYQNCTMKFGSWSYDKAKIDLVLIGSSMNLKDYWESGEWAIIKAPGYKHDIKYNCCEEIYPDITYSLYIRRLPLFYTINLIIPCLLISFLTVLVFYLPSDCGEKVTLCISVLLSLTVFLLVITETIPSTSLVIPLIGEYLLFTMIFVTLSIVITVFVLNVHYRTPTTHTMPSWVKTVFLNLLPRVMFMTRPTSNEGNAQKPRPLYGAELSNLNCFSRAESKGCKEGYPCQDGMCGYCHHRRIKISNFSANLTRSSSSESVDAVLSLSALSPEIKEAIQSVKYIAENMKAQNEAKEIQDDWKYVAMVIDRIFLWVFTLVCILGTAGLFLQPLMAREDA

“26 (GSVVIGQRCYRSPDCYSACKKLVGKATGKCTNGRCDC) [compound 26]” was tested, and the “Activity of 5HT3a with peptide (percentage of the reference compound)” value (5HT3a) was 96%, the “Activity of 5HT3a with peptide, expressed as a percentage of the reference compound” value (5HT3a) was 82% and the “Activity of a3b4 with peptide, expressed as a percentage of the reference compound” value (α3β4; peptide at 0.2 μM) was 88%. The “Activity of a3b4 with peptide (percentage of the reference compound)” value (α3β4; peptide at 20 μM) was 91%, the “Activity of a4b2 with peptide, expressed as a percentage of the reference compound” value (α4β2; peptide at 0.2 μM) was 85% and the “Activity of a4b2 with peptide (percentage of the reference compound)” value (α4β2; peptide at 20 μM) was 89%. The “Activity of Cav2.1 with peptide, expressed as a percentage of the reference compound” value (Cav2.1; peptide at 0.2 μM) was 115%, the “Activity of Cav2.1 with peptide (percentage of the reference compound)” value (Cav2.1; peptide at 20 μM) was 85% and the “Activity of Cav2.2 with peptide, expressed as a percentage of the reference compound” value (Cav2.2; peptide at 0.2 μM) was 103%. The “Activity of Cav2.2 with peptide (percentage of the reference compound)” value (Cav2.2; peptide at 20 μM) was 121%, the “Activity of Kv2.1 with peptide, expressed as a percentage of the reference compound” value (Kv2.1; peptide at 0.2 μM) was 98% and the “Activity of Kv2.1 with peptide (percentage of the reference compound)” value (Kv2.1; peptide at 20 μM) was 102%. For the same substance, the “Activity of GABA with peptide, expressed as a percentage of the reference compound” value (GABA; peptide at 0.2 μM) was 117%, the “Activity of GABA with peptide (percentage of the reference compound)” value (GABA; peptide at 20 μM) was 106% and the “Activity of Nav1.5 with peptide, expressed as a percentage of the reference compound” value (Nav1.5; [1]) was 92%. The “Activity of Nav1.5 with peptide, expressed as a percentage of the reference compound” value (Nav1.5; [2]) was 91%, the “Activity of Nav1.5 with peptide (percentage of the reference compound)” value (Nav1.5; [1]) was 90% and the “Activity of Nav1.5 with peptide (percentage of the reference compound)” value (Nav1.5; [2]) was 94%. The “Activity of hERG with peptide, expressed as a percentage of the reference compound” value (hERG; peptide at 0.2 μM) was 80%, the “Activity of hERG with peptide (percentage of the reference compound)” value (hERG; peptide at 20 μM) was 74% and the “Activity of Kir2.1 with peptide, expressed as a percentage of the reference compound” value (Kir2.1; peptide at 0.2 μM) was 102%. For the same substance, the “Activity of Kir2.1 with peptide (percentage of the reference compound)” value (Kir2.1; peptide at 20 μM) was 93%, the “Activity of Kv1.1 with peptide, expressed as a percentage of the reference compound” value (Kv1.1; peptide at 0.2 μM) was 66% and the “Activity of Kv1.1 with peptide (percentage of the reference compound)” value (Kv1.1; peptide at 20 μM) was 85%. For the same substance, the “Activity of Kv1.2 with peptide, expressed as a percentage of the reference compound” value (Kv1.2; peptide at 0.2 μM) was 79%, the “Activity of Kv1.2 with peptide (percentage of the reference compound)” value (Kv1.2; peptide at 20 μM) was 47% and the “Activity of Kv1.3 with peptide, expressed as a percentage of the reference compound” value (Kv1.3; peptide at 0.2 μM) was 94%. For the same substance, the “Activity of Kv1.3 with peptide (percentage of the reference compound)” value (Kv1.3; peptide at 20 μM) was 77%, the “Activity of Nav1.7 with peptide, expressed as a percentage of the reference compound” value (Nav1.7; [3]) was 81% and the “Activity of Nav1.7 with peptide, expressed as a percentage of the reference compound” value (Nav1.7; [4]) was 74%. For the same substance, the “Activity of Nav1.7 with peptide (percentage of the reference compound)” value (Nav1.7; [3]) was 73%, the “Activity of Nav1.7 with peptide (percentage of the reference compound)” value (Nav1.7; [4]) was 60% and the “Activity of NR2A with peptide, expressed as a percentage of the reference compound” value (NR2A; peptide at 0.2 μM) was 113%. The “Activity of NR2A with peptide (percentage of the reference compound)” value (NR2A; peptide at 20 μM) was 114%, the “Activity of NR2B with peptide, expressed as a percentage of the reference compound” value (NR2B; peptide at 0.2 μM) was 86% and the “Activity of NR2B with peptide (percentage of the reference compound)” value (NR2B; peptide at 20 μM) was 79%. The “Activity of TRPA1 with peptide, expressed as a percentage of the reference compound” value (TRPA1; peptide at 0.2 μM) was 109%, the “Activity of TRPA1 with peptide (percentage of the reference compound)” value (TRPA1; peptide at 20 μM) was 115% and the “Activity of TRPV1 with peptide, expressed as a percentage of the reference compound” value (TRPV1; peptide at 0.2 μM) was 116%. The “Activity of TRPV1 with peptide (percentage of the reference compound)” value (TRPV1; peptide at 20 μM) was 92%.
